Earlier results on 35 substances are cited in article PMC3721222.

Targets include Metalloprotease 2 (UniProt P08253); Cathepsin B (UniProt P07858); Cathepsin L (UniProt P07711); Kv1.1 (UniProt Q09470); Kv1.6 (UniProt P17658); Kv1.2 (UniProt P16389).
Data set [1] deals with Trypsin (Bos taurus) (UniProt P00760).
The target is the same in data set [2]. This is another data set of the same source.
Data set [3] has as its target Plasmin (Homo sapiens) (UniProt P00747).
For data set [4], the target named is Trypsin (Bos taurus) (UniProt P00760). The source holds these as a separate data set.
Data set [5] concerns the target Chymotrypsin (Bos taurus) (UniProt P00766).
The target of data set [6] is Neutrophil elastase (Homo sapiens) (UniProt P08246).
For data set [7], the target named is Trypsin (Bos taurus) (UniProt P00760). The source holds these as a separate data set.
The target is the same in data set [8]. The source holds these as a separate data set.
Data set [9] has the same target. The source holds these as a separate data set.
The target in data set [10] is Chymotrypsin (Bos taurus) (UniProt P00766). This is another data set of the same source.
In data set [11] the target is Trypsin (Bos taurus) (UniProt P00760). The source holds these as a separate data set.
Data set [12] shares this target. This is another data set of the same source.
The target of data set [13] is Plasmin (Homo sapiens) (UniProt P00747). The source holds these as a separate data set.
In data set [14] the target is Trypsin (Bos taurus) (UniProt P00760). This is another data set of the same source.
The target in data set [15] is Plasmin (Homo sapiens) (UniProt P00747). This is another data set of the same source.
Data set [16] deals with Chymotrypsin (Bos taurus) (UniProt P00766). This is another data set of the same source.
Data set [17] deals with Trypsin (Bos taurus) (UniProt P00760). This is another data set of the same source.
For data set [18] the target is unchanged. This is another data set of the same source.
Data set [19] has the same target. The source holds these as a separate data set.
The target in data set [20] is Chymotrypsin (Bos taurus) (UniProt P00766). The source holds these as a separate data set.
Data set [21] addresses Trypsin (Bos taurus) (UniProt P00760). The source holds these as a separate data set.
Data set [22] addresses Chymotrypsin (Bos taurus) (UniProt P00766). This is another data set of the same source.
Data set [23] has as its target Trypsin (Bos taurus) (UniProt P00760). This is another data set of the same source.
Data set [24] addresses Chymotrypsin (Bos taurus) (UniProt P00766). This is another data set of the same source.
The target of data set [25] is Trypsin (Bos taurus) (UniProt P00760). The source holds these as a separate data set.
Data set [26] has the same target. This is another data set of the same source.
The target in data set [27] is Papain (Carica papaya) (UniProt P00784).
Data set [28] concerns the target Chymotrypsin (Bos taurus) (UniProt P00766). This is another data set of the same source.
Data set [29] deals with Trypsin (Bos taurus) (UniProt P00760). The source holds these as a separate data set.
The target in data set [30] is Plasmin (Homo sapiens) (UniProt P00747). The source holds these as a separate data set.
Data set [31] has the same target. This is another data set of the same source.
Data set [32] concerns the target Chymotrypsin (Bos taurus) (UniProt P00766). The source holds these as a separate data set.
Data set [33] has as its target Papain (Carica papaya) (UniProt P00784). The source holds these as a separate data set.
The target in data set [34] is Leukocyte elastase (Homo sapiens) (UniProt P08246).
For data set [35], the target named is Trypsin (Bos taurus) (UniProt P00760). This is another data set of the same source.
Data set [36] addresses Chymotrypsin (Bos taurus) (UniProt P00766). This is another data set of the same source.
Data set [37] addresses Trypsin (Bos taurus) (UniProt P00760). The source holds these as a separate data set.
The target in data set [38] is Chymotrypsin (Bos taurus) (UniProt P00766). This is another data set of the same source.
Data set [39] concerns the target Trypsin (Bos taurus) (UniProt P00760). This is another data set of the same source.
Data set [40] addresses Pancreatic elastase (Sus scrofa) (UniProt P00772).
For data set [41], the target named is Trypsin (Bos taurus) (UniProt P00760). This is another data set of the same source.
Data set [42] addresses Chymotrypsin (Bos taurus) (UniProt P00766). This is another data set of the same source.
Data set [43] deals with Trypsin (Bos taurus) (UniProt P00760). The source holds these as a separate data set.

Like-named read-outs stand apart in the source and are kept apart here.

Sequence of UniProt P00747 (P00747 581-810): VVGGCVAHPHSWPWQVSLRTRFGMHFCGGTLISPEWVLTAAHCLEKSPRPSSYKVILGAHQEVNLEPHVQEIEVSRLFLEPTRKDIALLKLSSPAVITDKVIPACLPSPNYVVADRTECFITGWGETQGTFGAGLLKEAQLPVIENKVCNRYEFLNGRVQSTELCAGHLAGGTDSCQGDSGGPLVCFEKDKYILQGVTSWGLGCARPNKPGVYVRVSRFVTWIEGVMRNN
Sequence of UniProt P00760 (P00760 149-246): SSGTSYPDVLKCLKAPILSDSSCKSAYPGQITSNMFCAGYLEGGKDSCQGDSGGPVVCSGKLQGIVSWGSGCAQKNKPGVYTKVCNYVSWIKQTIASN
Sequence of UniProt P00784 (P00784 134-345): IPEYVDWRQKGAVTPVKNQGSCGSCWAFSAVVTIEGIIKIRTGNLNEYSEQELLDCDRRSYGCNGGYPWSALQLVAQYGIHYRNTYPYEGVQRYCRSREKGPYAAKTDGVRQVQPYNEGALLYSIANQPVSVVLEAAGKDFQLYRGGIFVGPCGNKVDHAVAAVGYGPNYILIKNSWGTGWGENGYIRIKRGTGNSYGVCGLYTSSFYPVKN
Sequence of UniProt P07711 (P07711 114-288, chain 1 of 2): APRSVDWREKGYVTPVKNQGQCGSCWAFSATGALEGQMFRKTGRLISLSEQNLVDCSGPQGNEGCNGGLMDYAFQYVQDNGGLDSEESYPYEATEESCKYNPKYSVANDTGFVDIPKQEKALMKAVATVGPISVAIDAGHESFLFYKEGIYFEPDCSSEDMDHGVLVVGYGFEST
Sequence of UniProt P07711 (P07711 292-333, chain 2 of 2): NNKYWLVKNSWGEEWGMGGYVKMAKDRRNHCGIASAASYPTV
Sequence of UniProt Q09470 (Q09470 whole entry): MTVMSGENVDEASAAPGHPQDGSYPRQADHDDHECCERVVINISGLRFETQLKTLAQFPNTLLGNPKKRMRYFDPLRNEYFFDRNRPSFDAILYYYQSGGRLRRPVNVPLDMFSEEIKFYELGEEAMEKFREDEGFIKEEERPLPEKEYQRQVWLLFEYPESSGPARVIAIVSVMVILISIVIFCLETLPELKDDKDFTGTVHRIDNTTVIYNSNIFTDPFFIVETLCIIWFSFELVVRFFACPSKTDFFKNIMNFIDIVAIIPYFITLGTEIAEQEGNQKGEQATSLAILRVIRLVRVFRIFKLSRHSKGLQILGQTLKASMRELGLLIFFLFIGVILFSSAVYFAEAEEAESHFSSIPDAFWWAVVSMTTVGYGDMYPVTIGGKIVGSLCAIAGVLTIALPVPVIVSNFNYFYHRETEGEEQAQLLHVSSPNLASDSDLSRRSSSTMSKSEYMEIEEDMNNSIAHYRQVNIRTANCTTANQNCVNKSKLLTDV
Sequence of UniProt P00772 (P00772 27-266): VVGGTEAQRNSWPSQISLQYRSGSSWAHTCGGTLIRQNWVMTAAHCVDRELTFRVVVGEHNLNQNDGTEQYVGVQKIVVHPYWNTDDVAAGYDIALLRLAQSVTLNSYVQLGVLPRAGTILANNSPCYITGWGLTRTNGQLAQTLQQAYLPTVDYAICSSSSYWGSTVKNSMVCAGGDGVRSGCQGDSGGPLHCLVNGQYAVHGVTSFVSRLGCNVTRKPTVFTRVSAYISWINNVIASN
Sequence of UniProt P17658 (P17658 whole entry): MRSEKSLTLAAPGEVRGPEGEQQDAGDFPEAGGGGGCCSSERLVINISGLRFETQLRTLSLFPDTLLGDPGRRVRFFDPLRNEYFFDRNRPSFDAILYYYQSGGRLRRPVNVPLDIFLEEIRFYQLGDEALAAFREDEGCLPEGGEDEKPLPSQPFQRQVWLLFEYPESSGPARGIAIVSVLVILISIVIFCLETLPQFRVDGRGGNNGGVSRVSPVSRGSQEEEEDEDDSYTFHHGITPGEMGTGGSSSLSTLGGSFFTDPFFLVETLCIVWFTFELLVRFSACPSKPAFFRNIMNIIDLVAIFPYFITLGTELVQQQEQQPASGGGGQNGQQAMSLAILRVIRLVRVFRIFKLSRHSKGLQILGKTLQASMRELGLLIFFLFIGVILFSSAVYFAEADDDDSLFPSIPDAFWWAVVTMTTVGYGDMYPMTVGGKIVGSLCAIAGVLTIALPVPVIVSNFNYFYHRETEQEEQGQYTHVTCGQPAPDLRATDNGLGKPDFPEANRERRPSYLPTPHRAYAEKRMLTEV
Sequence of UniProt P08253 (P08253 110-660): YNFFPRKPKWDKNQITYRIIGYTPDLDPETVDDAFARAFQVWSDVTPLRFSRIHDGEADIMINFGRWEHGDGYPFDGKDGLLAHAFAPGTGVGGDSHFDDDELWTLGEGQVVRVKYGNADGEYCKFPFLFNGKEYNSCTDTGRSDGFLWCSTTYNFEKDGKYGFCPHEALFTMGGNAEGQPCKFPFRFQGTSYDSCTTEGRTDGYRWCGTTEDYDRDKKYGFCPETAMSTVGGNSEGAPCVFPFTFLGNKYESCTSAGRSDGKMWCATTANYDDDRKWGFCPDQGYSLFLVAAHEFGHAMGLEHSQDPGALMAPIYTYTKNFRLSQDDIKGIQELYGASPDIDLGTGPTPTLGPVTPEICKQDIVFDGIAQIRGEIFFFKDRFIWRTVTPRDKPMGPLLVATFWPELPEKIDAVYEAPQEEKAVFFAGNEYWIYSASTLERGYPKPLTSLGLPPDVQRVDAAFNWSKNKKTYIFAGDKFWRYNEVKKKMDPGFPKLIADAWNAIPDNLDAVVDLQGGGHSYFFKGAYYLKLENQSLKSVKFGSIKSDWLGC
Sequence of UniProt P16389 (P16389 whole entry): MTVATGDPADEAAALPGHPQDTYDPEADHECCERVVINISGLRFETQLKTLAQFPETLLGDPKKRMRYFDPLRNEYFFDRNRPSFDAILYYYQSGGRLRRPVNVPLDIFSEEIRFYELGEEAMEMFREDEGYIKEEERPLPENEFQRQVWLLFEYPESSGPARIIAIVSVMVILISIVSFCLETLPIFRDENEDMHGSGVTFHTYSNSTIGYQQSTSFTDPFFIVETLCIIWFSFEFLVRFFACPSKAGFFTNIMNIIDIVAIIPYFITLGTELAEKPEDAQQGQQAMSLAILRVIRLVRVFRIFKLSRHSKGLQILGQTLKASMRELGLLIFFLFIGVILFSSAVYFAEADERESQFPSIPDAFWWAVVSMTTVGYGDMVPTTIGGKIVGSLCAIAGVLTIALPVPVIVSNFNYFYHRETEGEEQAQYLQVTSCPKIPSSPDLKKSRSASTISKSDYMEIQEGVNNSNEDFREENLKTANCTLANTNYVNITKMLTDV

Regarding rLmKTT-1c (from UniProt P0DJ48), the Kd with Trypsin (Bos taurus) [1] was 124 nM.
“Kalicludin-1 (AsKC1) (from UniProt Q9TWG0)”: in the data set with Trypsin (Bos taurus) [2], the Kd was below 30 nM.
On to AvKTI (from UniProt Q8T3S7), for which the Ki is 4.89 nM in the data set with Plasmin (Homo sapiens) [3], 7.34 nM in the data set with Trypsin (Bos taurus) [4], 37.8 nM in [5] and 169 nM in data set [6].
For the substance rBmKTT-1 (from UniProt P0DJ49), the Kd with Trypsin (Bos taurus) [7] was 136 nM.
As to rHg1 (from UniProt P0C8W3), in the data set with Trypsin (Bos taurus) [8], the Kd was 107 nM.
“Trypsin inhibitor I (from UniProt P00991)”: the Ki with Trypsin (Bos taurus) [9] is 0.34 nM; in data set [10], 270 nM.
Turning to Trypsin inhibitor (from UniProt P20229), in the data set with Trypsin (Bos taurus) [11], the inhibition constant (Ki) was 0.0035 nM.
With “Kalicludin-3 (AsKC3) (from UniProt Q9TWF8)”, the Kd with Trypsin (Bos taurus) [12] was below 30 nM.
Turning to Textilinin-2 (from UniProt Q90WA0), the Ki in the data set with Plasmin (Homo sapiens) [13] was 2.2 nM.
As to ShPI-1 (from UniProt P31713), the dissociation constant Kd was 0.11 nM in the data set with Trypsin (Bos taurus) [14], 2.7 nM in the data set with Plasmin (Homo sapiens) [15] and 2.3 nM in [16].
As to rLmKTT-1b (SdPI) (from UniProt P0DJ45), the Kd in the data set with Trypsin (Bos taurus) [17] was 160 nM.
As for Albumin-1 (from UniProt Q3T478), the Kd in the data set with Trypsin (Bos taurus) [18] was 1.92 nM.
With Pr-mulgin 1 (from UniProt E7FL11), the Ki in the data set with Metalloprotease 2 was 60 nM.
For rBmKTT-2 (from UniProt P0DJ50), the dissociation constant (Kd) with Trypsin (Bos taurus) [19] was 420 nM.
For the substance Dendrotoxin E (from UniProt P00984), the values for the Kd (in [20]; with Trypsin (Bos taurus) [21]) were 100 nM and 1 nM, respectively.
With APHC1 (from UniProt B2G331), the Kd in data set [22] was 5000 nM; with Trypsin (Bos taurus) [23], 1000 nM.
On to CBPTI-3 (from UniProt A8Y7N6), for which, in data set [24], the Ki is 2.55 nM.
Turning to SA5 II (from UniProt P10280), in the data set with Trypsin (Bos taurus) [25], the Kd was 0.3 nM.
As for Jn-IV (from UniProt P16344), the Kd with Trypsin (Bos taurus) [26] is 9.6 nM.
Take Equistatin (from UniProt P81439): the Ki is 1.4 nM in the data set with Cathepsin B, 0.051 nM with Cathepsin L and 0.57 nM in the data set with Papain (Carica papaya) [27].
On to OH-TCI (native) (from UniProt B6RLX2), for which the Ki (in [28]; in the data set with Trypsin (Bos taurus) [29]) was 170 nM each time.
In the case of Bi-KTI (from UniProt G3LH89), the Ki in the data set with Plasmin (Homo sapiens) [30] is 3.6 nM.
Turning to Toxin I (from UniProt P00979), the dissociation constant (Kd) with Kv1.1, with Kv1.6 and with Kv1.2 was below 20 nM throughout.
With Bt-KTI (from UniProt D8KY58), the Ki in the data set with Plasmin (Homo sapiens) [31] was 2.01 nM.
Consider BF9 (from UniProt P25660), for which the Kd in data set [32] is 58 nM.
As for “Equistatin N-terminal domain (from UniProt P81439)”, the Ki with Papain (Carica papaya) [33] was 0.6 nM.
On to “Elastase inhibitor AEI (from UniProt P16895)”, for which the Ki in data set [34] is 1000 nM.
As to CBPTI-1 (from UniProt A8Y7N4), the Ki in the data set with Trypsin (Bos taurus) [35] was 407 nM.
Take Bungaruskunin (from UniProt B2KTG1): the inhibition constant (Ki) in data set [36] was 6100 nM.
Turning to CBPTI-2 (from UniProt A8Y7N5), the Ki in the data set with Trypsin (Bos taurus) [37] was 666 nM.
In the case of NACI (from UniProt Q5ZPJ7), the Ki in data set [38] is 25 nM.
For the substance “Kalicludin-2 (AsKC2) (from UniProt Q9TWF9)”, the Kd in the data set with Trypsin (Bos taurus) [39] was below 30 nM.
Consider “Elastase inhibitor (from UniProt P16895)”, for which, in [40], the Kd was 1 nM.
On to “Chymotrypsin inhibitor (from UniProt P00992)”, for which the results for the Ki (in the data set with Trypsin (Bos taurus) [41]; in data set [42]) were 5100 nM and 4.3 nM, respectively.
With rLmKTT-1a (from UniProt P0DJ46), the Kd with Trypsin (Bos taurus) [43] was 140 nM.

By Kd is commonly meant a measure of binding affinity in units of concentration. A word on the Ki: it is the equilibrium dissociation constant of an inhibitor or competing ligand from its target.
